Target: T1, human CD27 (human, UniProt P26842 20-260)
T1 sequence (looked up): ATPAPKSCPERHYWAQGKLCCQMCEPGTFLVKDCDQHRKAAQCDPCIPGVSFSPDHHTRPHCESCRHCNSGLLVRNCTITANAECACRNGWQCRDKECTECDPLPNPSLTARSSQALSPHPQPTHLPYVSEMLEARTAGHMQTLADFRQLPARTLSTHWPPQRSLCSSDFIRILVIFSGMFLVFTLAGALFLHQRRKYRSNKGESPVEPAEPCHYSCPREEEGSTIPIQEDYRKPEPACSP
Assay: cell-based or functional assay

level of CD14 on monocytes in human PBMC cultures after 48 hours (flow cytometry): 2 fold | monocyte number in human PBMC cultures after 48 hours with 5 µg/mL mAb (flow cytometry): 3 fold
B1: varlilumab (anti-human CD27 mAb) (antibody, V domains shown)
VH: QVQLVESGGGVVQPGRSLRLSCAASGFTFSSYDMHWVRQAPGKGLEWVAVIWYDGSNKYYADSVKGRFTISRDNSKNTLYLQMNSLRAEDTAVYYCARGSGNWGFFDYWGQGTLVTVSS
VL: DIQMTQSPSSLSASVGDRVTITCRASQGISRWLAWYQQKPEKAPKSLIYAASSLQSGVPSRFSGSGSGTDFTLTISSLQPEDFATYYCQQYNTYPRTFGQGTKVEIK

Source: patent publication US20190169306A1 (UNIVERSITY OF SOUTHAMPTON, published 2019)
